Kd data for 2 substances are collected here from PMC8167055.

One experiment addresses LC3B (Homo sapiens) (UniProt Q9GZQ8). As to conditions: cited from earlier work.
The target of experiment [1] is LC3B fused with mCherry (microtubule-associated protein light chain 3) (human) (UniProt Q9GZQ8). Description: ELISA; plate coated with 5 μg/ml mCherry-LC3B in PBS, blocked with BSA; serial dilutions of TPPP/p25 forms or SYN; detected by TPPP/p25 or SYN antibodies; apparent Kd from hyperbola with a single binding site. For orientation: ELISA stands for enzyme-linked immunosorbent assay.

SQSTM1/p62 (from UniProt Q13501): the Kd in the experiment with LC3B (Homo sapiens) was 1500 nM.
For the substance “Tubulin Polymerization Promoting Protein (TPPP/p25), human recombinant with hexaHis tag (from UniProt O94811 1-219) (natural protein; other documents disagree on this pair)”, the Kd in experiment [1] worked out at 21.5 nM.
